This sample holds only a part of the variants without activity.
Legend:
[1] = tested on: biotinyl-Val-oxazolone; assay: self-aminoacylation, catalytic enhancement (BVO) (fold over background); higher = more active; k-Seq, kA / k0A0; sequences stand for … in GGGAAUGGAUCCACAUCUACGAAUUC…UUCACUGCAGACUUGACGAAGCUG
How it was run: (§1)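 Working in 50 μL HEPES/NaCl/KCl/MgCl2/CaCl2 buffer with 5% acetonitrile at pH 6.9–7.0, mutagenized RNA pools (0.43 μM; 21-nt variable region) were reacted with 2–1250 μM of each biotinyl-aminoacyl-oxazolone for 90 minutes at room temperature. Streptavidin capture followed, with quantification by triplicate qPCR and Illumina sequencing. Catalytic enhancement is reported as median kA over the uncatalyzed rate, the low-activity peak of a bimodal Gaussian fit to the data.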

[2] = tested on: biotinyl-Trp-oxazolone; assay: self-aminoacylation, catalytic enhancement (BWO) (fold over background); higher = more active; k-Seq, kA / k0A0; sequences stand for … in GGGAAUGGAUCCACAUCUACGAAUUC…UUCACUGCAGACUUGACGAAGCUG
How it was run: as §1

[3] = tested on: biotinyl-Leu-oxazolone; assay: self-aminoacylation, catalytic enhancement (BLO) (fold over background); higher = more active; k-Seq, kA / k0A0; sequences stand for … in GGGAAUGGAUCCACAUCUACGAAUUC…UUCACUGCAGACUUGACGAAGCUG
How it was run: as §1

[4] = tested on: biotinyl-Ile-oxazolone; assay: self-aminoacylation, catalytic enhancement (BIO) (fold over background); higher = more active; k-Seq, kA / k0A0; sequences stand for … in GGGAAUGGAUCCACAUCUACGAAUUC…UUCACUGCAGACUUGACGAAGCUG
How it was run: as §1

[5] = tested on: biotinyl-Phe-oxazolone; assay: self-aminoacylation, catalytic enhancement (BFO) (fold over background); higher = more active; k-Seq, kA / k0A0; sequences stand for … in GGGAAUGGAUCCACAUCUACGAAUUC…UUCACUGCAGACUUGACGAAGCUG
How it was run: as §1

[6] = tested on: biotinyl-Met-oxazolone; assay: self-aminoacylation, catalytic enhancement (BMO) (fold over background); higher = more active; k-Seq, kA / k0A0; sequences stand for … in GGGAAUGGAUCCACAUCUACGAAUUC…UUCACUGCAGACUUGACGAAGCUG
How it was run: as §1

| Sequence | self-aminoacylation [1] | self-aminoacylation [2] | self-aminoacylation [3] | self-aminoacylation [4] | self-aminoacylation [5] | self-aminoacylation [6] |
| --- | --- | --- | --- | --- | --- | --- |
| CUACUUCGAGCAAUCGGUCUG [Fam1A.1 aminoacylation ribozyme variant] | 1.01 | 0.703 | 0.815 | 0.951 | 0.728 | 1.15 |
| CUACUUCGCACAAUCGGUCUG [Fam1A.1 aminoacylation ribozyme variant] | 0.961 | 0.591 | 0.999 | 0.867 | 0.439 | 0.94 |
| CUACUUCUAACAAUCGAUCUG [Fam1A.1 aminoacylation ribozyme variant] | 0.67 | 0.416 | 0.509 | 0.674 | 0.698 | 0.522 |
| CUACUUCUAACAAUCGGCCUG [Fam1A.1 aminoacylation ribozyme variant] | 1.2 | 1.05 | 1.31 | 1.09 | 1.01 | 0.997 |
| CUACUUCUAACAAUCGGUCUC [Fam1A.1 aminoacylation ribozyme variant] | 0.664 | 0.571 | 0.572 | 0.686 | 0.799 | 0.634 |
| CUACUUCUAACAAUCGGUCUU [Fam1A.1 aminoacylation ribozyme variant] | 0.871 | 0.465 | 0.753 | 0.748 | 0.801 | 0.701 |
| CUACUUCUAACGAUCGGUCUG [Fam1A.1 aminoacylation ribozyme variant] | 0.688 | 0.505 | 0.622 | 0.675 | 0.785 | 0.747 |
| CUACUUCUAAUAAUCGGUCUG [Fam1A.1 aminoacylation ribozyme variant] | 0.792 | 0.774 | 0.63 | 0.776 | 1.02 | 0.699 |
| CUACUUGAAACAACCGGUCUG [Fam1A.1 aminoacylation ribozyme variant] | 1.01 | 1.24 | 0.805 | 1.07 | 0.529 | 1.18 |
| CUACUUGAAACAAUCCGUCUG [Fam1A.1 aminoacylation ribozyme variant] | 0.836 | 1.44 | 0.759 | 0.813 | 0.462 | 1.03 |
| CUACUUGAAACAAUCUGUCUG [Fam1A.1 aminoacylation ribozyme variant] | 0.657 | 0.496 | 0.636 | 0.655 | 0.472 | 0.747 |
| CUACUUGAAUCAAUCGGUCUG [Fam1A.1 aminoacylation ribozyme variant] | 0.782 | 0.582 | 0.705 | 0.857 | 0.466 | 0.811 |
| CUACUUGGAACAAUCGGUCUG [Fam1A.1 aminoacylation ribozyme variant] | 0.833 | 0.642 | 0.788 | 0.831 | 0.848 | 0.904 |
| CUACUUUAAACAACCGGUCUG [Fam1A.1 aminoacylation ribozyme variant] | 0.973 | 1.07 | 0.978 | 0.909 | 0.725 | 0.996 |
| CUACUUUAAACAAUAGGUCUG [Fam1A.1 aminoacylation ribozyme variant] | 0.891 | 0.648 | 0.841 | 0.925 | 0.945 | 0.979 |
| CUACUUUAAACAGUCGGUCUG [Fam1A.1 aminoacylation ribozyme variant] | 0.845 | 0.651 | 0.812 | 0.837 | 0.582 | 0.765 |
| CUACUUUAAAUAAUCGGUCUG [Fam1A.1 aminoacylation ribozyme variant] | 0.902 | 0.885 | 0.82 | 0.923 | 1.03 | 0.869 |
| CUACUUUAUACAAUCGGUCUG [Fam1A.1 aminoacylation ribozyme variant] | 0.882 | 0.626 | 0.808 | 0.857 | 0.815 | 0.832 |
| CUAGUCCAAACAAUCGGUCUG [Fam1A.1 aminoacylation ribozyme variant] | 0.767 | 1.01 | 0.755 | 0.963 | 1.03 | 0.736 |
| CUAGUUCAAACAAGCGGUCUG [Fam1A.1 aminoacylation ribozyme variant] | 0.93 | 1.19 | 1.08 | 1.2 | 1.21 | 1.54 |
| CUAGUUCAAACAAUCGGCCUG [Fam1A.1 aminoacylation ribozyme variant] | 1.84 | 11.2 | 2.2 | 1.71 | 12.4 | 1.76 |
| CUAGUUCAAACAAUCGGUCCG [Fam1A.1 aminoacylation ribozyme variant] | 0.649 | 0.582 | 0.745 | 0.787 | 0.893 | 0.742 |
| CUAGUUCAAACAAUCGGUCUC [Fam1A.1 aminoacylation ribozyme variant] | 0.863 | 5.9 | 1.25 | 0.896 | 9.67 | 0.795 |
